Measured values from doi:10.1101/2023.08.01.551421 (bioRxiv, 2023).

Experiments:
[1] = target: GBP1 M139R, non-farnesylated (human) (UniProt P32455); experiment: SEC
[2] = target: GBP1 Δ207-223 variant, non-farnesylated (human) (UniProt P32455)
[3] = target: GBP1 Δ207-223 variant, non-farnesylated (human) (UniProt P32455); experiment: cross-linking
[4] = target: GBP1 Δ207-223 variant, farnesylated (human) (UniProt P32455); experiment: cross-linking
[5] = target: GBP1 M139E, non-farnesylated (human) (UniProt P32455); experiment: SEC
[6] = target: T1, human guanylate-binding protein 1 (GBP1), wild type, non-farnesylated (human), P32455; experiment: GTP hydrolysis assay; conditions: remark: other sources report otherwise
T1 chain: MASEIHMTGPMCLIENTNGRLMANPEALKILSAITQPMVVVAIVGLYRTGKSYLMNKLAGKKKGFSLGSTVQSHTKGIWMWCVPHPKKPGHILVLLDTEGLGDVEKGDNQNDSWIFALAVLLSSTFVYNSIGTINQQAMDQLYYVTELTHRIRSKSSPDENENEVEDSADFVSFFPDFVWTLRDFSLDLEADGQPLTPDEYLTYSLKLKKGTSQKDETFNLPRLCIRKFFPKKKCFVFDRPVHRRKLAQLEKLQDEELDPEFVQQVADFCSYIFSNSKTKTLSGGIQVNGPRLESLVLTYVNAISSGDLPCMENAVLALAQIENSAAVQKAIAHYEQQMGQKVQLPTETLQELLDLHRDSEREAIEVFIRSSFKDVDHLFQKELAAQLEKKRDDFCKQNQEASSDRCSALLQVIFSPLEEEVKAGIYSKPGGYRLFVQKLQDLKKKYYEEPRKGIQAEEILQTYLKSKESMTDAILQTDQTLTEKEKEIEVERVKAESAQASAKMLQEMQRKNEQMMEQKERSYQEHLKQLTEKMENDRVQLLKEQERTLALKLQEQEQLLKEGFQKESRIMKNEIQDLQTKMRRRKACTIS

[7] = target: T1, human guanylate-binding protein 1 …; experiment: cross-linking; conditions: remark: other sources report otherwise
[8] = target: T2, human guanylate-binding protein 1 (GBP1), wild type, farnesylated (human), P32455; experiment: cryo-EM structure; conditions: remark: other sources report otherwise
T2 chain: T1 chain

Work on “GBP1 M139R, non-farnesylated (from UniProt P32455 1-592) (natural protein)” yielded a stoichiometry N [1] of 2.

Molecule “GBP1 Δ207-223 variant, non-farnesylated (from UniProt P32455 1-592) (natural protein)” has a catalytic GTPase activity against wild-type (GTP hydrolysis assay) [2] of 1.7 fold and a stoichiometry N [3] of 2.

With “GBP1 Δ207-223 variant, farnesylated (from UniProt P32455) (natural protein)” the stoichiometry N [4] was 2.

In the case of “GBP1 M139E, non-farnesylated (from UniProt P32455 1-592) (natural protein)”, the stoichiometry N [5] is reported as 2.

B1: human guanylate-binding protein 1 (GBP1), wild type, non-farnesylated, P32455 1-592 (natural protein)
chain: T1 chain
In the case of B1, the Kd [6] is reported as 1900 nM and the stoichiometry N [7] is reported as 2.

B2: human guanylate-binding protein 1 (GBP1), wild type, farnesylated, P32455 (natural protein)
chain: T1 chain
modifications: here or on the partner: farnesyl moiety, C-terminal (CaaX box motif); farnesyl moiety, C-terminal (CaaX box motif)
B2 was tested, and the subunits (outstretched GBP1 dimers) in one planar disk [8] was 30.
